The text below walks through data of paper PMC10815899, “Glyceraldehyde 3-Phosphate Dehydrogenase on the Surface of Candida albicans and Nakaseomyces glabratus Cells—A Moonlighting Protein That Binds Human Vitronectin and Plasminogen and Can Adsorb to Pathogenic Fungal Cells via Major Adhesins Als3 and Epa6” (International Journal of Molecular Sciences, 2024).

Values joined by “and” are separate entries in the source; they are usually repeats but may differ in a detail not shown here. Equal values may be shown once.

The target of data set [1] is T1, agglutinin-like sequence protein 3 (full-length Als3) on S. cerevisiae cells (C. albicans, UniProt Q59L12 18-1134).
T1 construct: source: S. cerevisiae, overexpressed and surface-presented, on cells
T1 sequence: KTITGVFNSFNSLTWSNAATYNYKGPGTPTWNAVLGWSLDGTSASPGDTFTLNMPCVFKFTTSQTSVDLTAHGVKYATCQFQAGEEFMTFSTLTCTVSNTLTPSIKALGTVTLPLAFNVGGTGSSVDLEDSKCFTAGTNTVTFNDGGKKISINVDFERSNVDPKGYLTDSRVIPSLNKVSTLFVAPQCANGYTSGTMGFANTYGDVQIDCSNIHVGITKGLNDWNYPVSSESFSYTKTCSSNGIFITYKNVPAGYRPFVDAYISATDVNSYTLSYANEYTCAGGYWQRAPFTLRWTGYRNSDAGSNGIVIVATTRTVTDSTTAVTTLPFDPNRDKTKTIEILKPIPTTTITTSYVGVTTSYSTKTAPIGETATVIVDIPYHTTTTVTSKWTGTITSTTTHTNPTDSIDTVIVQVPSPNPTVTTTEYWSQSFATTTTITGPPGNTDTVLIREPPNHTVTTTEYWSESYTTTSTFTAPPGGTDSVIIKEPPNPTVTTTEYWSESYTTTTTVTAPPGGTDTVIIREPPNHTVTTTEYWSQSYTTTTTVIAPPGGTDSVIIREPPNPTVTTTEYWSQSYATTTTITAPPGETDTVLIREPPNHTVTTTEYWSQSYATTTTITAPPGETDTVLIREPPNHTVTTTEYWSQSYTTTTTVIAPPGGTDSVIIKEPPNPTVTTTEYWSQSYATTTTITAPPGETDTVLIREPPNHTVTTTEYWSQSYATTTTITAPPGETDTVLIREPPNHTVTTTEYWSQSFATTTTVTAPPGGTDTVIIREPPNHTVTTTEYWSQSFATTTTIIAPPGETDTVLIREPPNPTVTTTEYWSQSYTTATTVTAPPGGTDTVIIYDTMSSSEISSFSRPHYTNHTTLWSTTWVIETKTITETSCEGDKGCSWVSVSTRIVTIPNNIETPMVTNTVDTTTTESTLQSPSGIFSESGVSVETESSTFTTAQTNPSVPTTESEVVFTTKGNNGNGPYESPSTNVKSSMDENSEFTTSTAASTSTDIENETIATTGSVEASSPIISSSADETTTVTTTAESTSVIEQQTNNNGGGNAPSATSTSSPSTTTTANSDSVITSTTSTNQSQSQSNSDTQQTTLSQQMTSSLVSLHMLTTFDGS
The data set is described as follows: whole-cell binding assay (biotin-labeled protein, SA-HRP/TMB); S. cerevisiae cells presenting the adhesin (3 × 10^7 cells per tube); biotin-labeled CaGAPDH 0–400 nM, 1 h at 37 °C; one-site specific binding model, estimated dissociation constants. Conditions: one partner purified.

For data set [2], the target named is T2, Hwp1 (hyphal wall protein 1) on S. cerevisiae cells (C. albicans, UniProt P46593 28-613).
T2 construct: Hyphal wall protein 1 of C. albicans presented on the surface of S. cerevisiae; source: S. cerevisiae, overexpressed and surface-presented, on cells
T2 sequence: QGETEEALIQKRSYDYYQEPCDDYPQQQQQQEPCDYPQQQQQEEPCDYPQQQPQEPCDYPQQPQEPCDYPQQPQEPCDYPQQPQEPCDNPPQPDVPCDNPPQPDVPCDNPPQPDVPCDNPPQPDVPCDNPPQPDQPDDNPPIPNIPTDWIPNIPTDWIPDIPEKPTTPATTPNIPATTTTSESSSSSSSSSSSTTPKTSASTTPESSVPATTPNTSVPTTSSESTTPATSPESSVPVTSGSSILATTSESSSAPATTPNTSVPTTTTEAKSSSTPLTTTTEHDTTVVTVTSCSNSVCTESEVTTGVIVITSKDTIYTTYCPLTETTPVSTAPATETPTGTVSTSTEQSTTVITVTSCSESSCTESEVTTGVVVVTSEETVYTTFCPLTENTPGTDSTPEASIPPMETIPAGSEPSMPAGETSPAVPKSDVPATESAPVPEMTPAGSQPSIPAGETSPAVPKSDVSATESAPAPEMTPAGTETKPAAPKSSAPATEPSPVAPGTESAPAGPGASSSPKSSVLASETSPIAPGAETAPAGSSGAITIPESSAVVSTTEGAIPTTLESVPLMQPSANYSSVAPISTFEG
Described as above. The note with it: one partner purified.

In data set [3] the target is T3, Eap1 (epithelial adhesin protein 1) on S. cerevisiae cells (C. albicans, UniProt G1UBC2 19-632).
T3 construct: Eap1 adhesin of C. albicans presented on the surface of S. cerevisiae; source: S. cerevisiae, overexpressed and surface-presented, on cells
T3 sequence: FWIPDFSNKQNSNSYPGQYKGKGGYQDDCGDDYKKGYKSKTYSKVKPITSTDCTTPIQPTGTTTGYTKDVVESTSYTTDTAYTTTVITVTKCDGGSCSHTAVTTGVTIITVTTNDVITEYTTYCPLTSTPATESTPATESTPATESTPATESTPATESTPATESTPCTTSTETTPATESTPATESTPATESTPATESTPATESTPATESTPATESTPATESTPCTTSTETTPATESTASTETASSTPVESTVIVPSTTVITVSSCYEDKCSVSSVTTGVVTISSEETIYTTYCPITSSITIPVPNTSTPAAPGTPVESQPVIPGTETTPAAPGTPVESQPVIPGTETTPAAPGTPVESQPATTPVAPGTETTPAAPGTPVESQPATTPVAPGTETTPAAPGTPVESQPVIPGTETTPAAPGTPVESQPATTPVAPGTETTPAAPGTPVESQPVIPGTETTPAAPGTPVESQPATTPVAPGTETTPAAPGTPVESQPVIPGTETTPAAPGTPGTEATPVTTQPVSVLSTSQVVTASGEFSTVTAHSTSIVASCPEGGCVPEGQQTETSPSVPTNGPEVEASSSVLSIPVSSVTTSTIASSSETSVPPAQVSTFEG
Described as above. The note with it: one partner purified.

Data set [4] deals with the molecule itself. Briefly: SEC; Superdex 200 HR 10/50, calibrated with molecular mass standards, 0.5 mL/min; buffer 20 mM Tris-HCl pH 6.7 (methods) or 50 mM NaH2PO4, 150 mM NaCl pH 7.0. For orientation: SEC sorts molecules by how far they enter the pores of the column.

B1: recombinant Candida albicans glyceraldehyde 3-phosphate dehydrogenase (enzyme, C. albicans, UniProt Q5ADM7 1-335, looked up)
chain: MAIKIGINGFGRIGRLVLRVALGRKDIEVVAVNDPFIAPDYAAYMFKYDSTHGRYKGEVTASGDDLVIDGHKIKVFQERDPANIPWGKSGVDYVIESTGVFTKLEGAQKHIDAGAKKVIITAPSADAPMFVVGVNEDKYTPDLKIISNASCTTNCLAPLAKVVNDTFGIEEGLMTTVHSITATQKTVDGPSHKDWRGGRTASGNIIPSSTGAAKAVGKVIPELNGKLTGMSLRVPTTDVSVVDLTVRLKKAASYEEIAQAIKKASEGPLKGVLGYTEDAVVSTDFLGSSYSSIFDEKAGILLSPTFVKLISWYDNEYGYSTRVVDLLEHVAKASA
modifications: biotin (NHS-biotin) in the microplate and yeast-cell binding assays; Alexa Fluor 647 in flow cytometry
notes: no tag (pLATE11); By gel filtration predominantly a tetramer, with marked proportions of dimers and monomers; The forward primer carries ATGATG (the vector adapter's ATG and the gene's own), so an extra N-terminal Met may be present; also called CaGAPDH; GAPDH; source: E. coli Rosetta 2 (DE3), pLATE11, purified (ammonium sulfate fractionation, ResourceQ)
Take B1: the dissociation constant (Kd) is 95.9 nM in data set [1], 715 nM in data set [2] and 1250 nM in data set [3]. Further, in data set [4], the “stoichiometry N” value is 4 and 2.

As usually defined, the Kd is a measure of binding affinity in units of concentration. In general, stoichiometry N refers to the number of molecules, sites or subunits per partner or assembly.
